The target of assay [1] is bv2 displayed on E. coli (Intimin fusion). In words: flow cytometry on cells. (In flow cytometry, cells or beads pass a laser one at a time.)
In assay [2] the target is 16 unique Boskar4 variants displayed on E. coli. Briefly: flow cytometry on cells.

B1: biotinylated recombinant human G-CSFR (BioGCSFR) (receptor)
chain: ECGHISVSAPIVHLGDPITASCIIKQNCSHLDPEPQILWRLGAELQPGGRQQRLSDGTQESIITLPHLNHTQAFLSCCLNWGNSLQILDQVELRAGYPPAIPHNLSCLMNLTTSSLICQWEPGPETHLPTSFTLKSFKSRGNCQTQGDSILDCVPKDGQSHCCIPRKHLLLYQNMGIWVQAENALGTSMSPQLCLDPMDVVKLEPPMLRTMDPSPEAAPPQAGCLQLCWEPWQPGLHINQKCELRHKPQRGEASWALVGPLPLEALQYELCGLLPATAYTLQIRCIRWPLPGHWSDWSPSLELRTTERAPTVRLDTWWRQRQLDPRTVQLFWKPVPLEEDSGRIQGYVVSWRPSGQAGAILPLCNTTELSCTFHLPSEAQEVALVAYNSAGTSRPTPVVFSESRGPALTRLHAMARDPHSLWVGWEPPNPWPQGYVIEWGLGPPSASNSNKTWRMEQNGRATGFLLKENIRPFQLYEIIVTPLYQDTMGPSQHVYAYSQEMAPSHAPELHLKHIGKTWAQLEWVPEPPELGKSPLTHYTIFWTNAQNQSFSAILNASSRGFVLHGLEPASLYHIHLMAASQAGATNSTVLTLMTLTPEGSELH
modifications: biotin (Biotin-NHS, 1:20 molar ratio G-CSFR:Biotin-NHS)
Regarding B1, the fold increase of expression-normalized binding over Boskar4 stood at 37 fold in assay [1] and 3 fold in assay [2].

Values taken from paper doi:10.1101/2023.11.25.568662.
